Reference: patent publication US20110274704A1

Key:
[1] = molecular target: CD20 on lymphoma and leukemia cell lines (human) (UniProt P11836); assay: cell-based or functional assay
[2] = molecular target: fusion protein containing the A3B3 domain of CEA (UniProt P06731); assay: competitive ELISA on coated A3B3 fusion protein; competitor HRP-conjugated hMN-14 IgG (1 nM)

Sequence of CD20 on lymphoma and leukemia cell lines (human) (P11836 whole entry, the tested form may be a part): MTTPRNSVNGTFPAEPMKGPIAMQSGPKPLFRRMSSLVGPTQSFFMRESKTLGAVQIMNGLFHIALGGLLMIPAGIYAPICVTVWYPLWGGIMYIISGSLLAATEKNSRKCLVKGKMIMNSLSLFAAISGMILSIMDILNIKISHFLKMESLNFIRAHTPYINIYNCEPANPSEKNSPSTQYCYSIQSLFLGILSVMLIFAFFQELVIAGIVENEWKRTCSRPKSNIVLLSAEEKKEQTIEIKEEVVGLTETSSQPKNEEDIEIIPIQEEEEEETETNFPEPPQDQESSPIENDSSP

Row | Substance | EC50, in vitro cytotoxicity, Daudi and Ramos cells [1] [µM] | EC50, in vitro cytotoxicity, Jeko-1 cells [1] [µM] | fold of avidity against TF1 [2] [fold]
1 | 20-Rap (antibody) | 0.0001 | 20 | 
2 | TF2 (bispecific antibody) |  |  | 2
